# “Also recorded” adds a separate entry of the source.
# Legend:
# [1] = BNP as active hormone; cited from earlier work
# [2] = system: cGMP; experiment: cGMP levels in plasma and urine after i.v. bolus in cynomolgus monkeys; assay type: in vivo, cynomolgus monkey
# Text: Six adult male cynomolgus monkeys (5-6 kg) from the same colony were randomly selected for this study. In the morning of the experiment day, each monkey was quickly anesthetized by inhalation of 5% isoflurance/95% oxygen. Once the animal was unconscious, the isoflurance was reduced to 1.5% and a sterile catheter was inserted into the urinary bladder. Another catheter was connected to a cephalic vein in the right or left arm of the monkey for compound delivery. The anesthesia was discontinued. The conscious monkey was seated in a restraining chair and allowed to stabilize for 1 hour. The conscious monkey received two bolus doses (1 nmol/kg and 3 nmol/kg) of each human BNP analog in 1 ml of saline via cephalic vein injection followed by a flush with 3 ml of saline. One hour of washing-out period was required between the two administrations. Two ml of blood were drawn into a EDTA tube containing 150 kallikrein-inactivating units aprotonin via a cephalic vein in the another arm of the monkey at the following 8 time points: baseline (within 2 min prior to dosing), 2, 5, 10, 15, 30, 60 and 120 min. The collected samples were kept on ice prior to centrifugation at 4° C. The plasma from each time point was aliquoted to 4 Eppendorff tubes with approximately […]. For urine collection, the bladder was emptied and flushed with 5 ml of sterile water. […]
# [3] = Pharmacokinetics after i.v. bolus in cynomolgus monkeys (FIGS. 9, 10); assay type: in vivo, cynomolgus monkey; conditions: for circulating (plasma) half-life compared to hBNP: i.v., male Cyno monkeys
# Text: Six adult male cynomolgus monkeys (5-6 kg) from the same colony were randomly selected for this study. In the morning of the experiment day, each monkey was quickly anesthetized by inhalation of 5% isoflurance/95% oxygen. Once the animal was unconscious, the isoflurance was reduced to 1.5% and a sterile catheter was inserted into the urinary bladder. Another catheter was connected to a cephalic vein in the right or left arm of the monkey for compound delivery. The anesthesia was discontinued. The conscious monkey was seated in a restraining chair and allowed to stabilize for 1 hour. The conscious monkey received two bolus doses (1 nmol/kg and 3 nmol/kg) of each human BNP analog in 1 ml of saline via cephalic vein injection followed by a flush with 3 ml of saline. One hour of washing-out period was required between the two administrations. Two ml of blood were drawn into a EDTA tube containing 150 kallikrein-inactivating units aprotonin via a cephalic vein in the another arm of the monkey at the following 8 time points: baseline (within 2 min prior to dosing), 2, 5, 10, 15, 30, 60 and 120 min. The collected samples were kept on ice prior to centrifugation at 4° C. The plasma from each time point was aliquoted to 4 Eppendorff tubes with approximately […]. For urine collection, the bladder was emptied and flushed with 5 ml of sterile water. The urine was collected to a 15 ml regular polypropylene tube in every 20 min at the following time points: −60, −40, −20, 0, 20, 40, 60, 80, 100 and 120 min. Weighing of tube was required before and after collection. The urine sample from each time point was aliquoted to 4 Eppendorf tubes with […]. All plasma and urine samples were kept at −80° C. and delivered on dry ice. Material supply: […] of hBNP were required for 8 cynos with the body weight of 6 kg at the doses of 1 nmol/kg and 3 nmol/kg, respectively. The material for each dose was weighed to a 15 ml sterile tube and dissolved in 8 ml of sterile saline prior to injection. Approximately 1 ml of the material at each dose was injected to each animal. The injection volume (ml) of the material to each animal was equal to animal body weight (kg) divided by six.
# [4] = target: T1, GC-A receptor (Homo sapiens, UniProt P16066); experiment: Competitive binding to GC-A receptor (FIG. 7); conditions: glycosylated recombinant human proBNP vs hBNP
# T1 sequence (P16066 33-1061): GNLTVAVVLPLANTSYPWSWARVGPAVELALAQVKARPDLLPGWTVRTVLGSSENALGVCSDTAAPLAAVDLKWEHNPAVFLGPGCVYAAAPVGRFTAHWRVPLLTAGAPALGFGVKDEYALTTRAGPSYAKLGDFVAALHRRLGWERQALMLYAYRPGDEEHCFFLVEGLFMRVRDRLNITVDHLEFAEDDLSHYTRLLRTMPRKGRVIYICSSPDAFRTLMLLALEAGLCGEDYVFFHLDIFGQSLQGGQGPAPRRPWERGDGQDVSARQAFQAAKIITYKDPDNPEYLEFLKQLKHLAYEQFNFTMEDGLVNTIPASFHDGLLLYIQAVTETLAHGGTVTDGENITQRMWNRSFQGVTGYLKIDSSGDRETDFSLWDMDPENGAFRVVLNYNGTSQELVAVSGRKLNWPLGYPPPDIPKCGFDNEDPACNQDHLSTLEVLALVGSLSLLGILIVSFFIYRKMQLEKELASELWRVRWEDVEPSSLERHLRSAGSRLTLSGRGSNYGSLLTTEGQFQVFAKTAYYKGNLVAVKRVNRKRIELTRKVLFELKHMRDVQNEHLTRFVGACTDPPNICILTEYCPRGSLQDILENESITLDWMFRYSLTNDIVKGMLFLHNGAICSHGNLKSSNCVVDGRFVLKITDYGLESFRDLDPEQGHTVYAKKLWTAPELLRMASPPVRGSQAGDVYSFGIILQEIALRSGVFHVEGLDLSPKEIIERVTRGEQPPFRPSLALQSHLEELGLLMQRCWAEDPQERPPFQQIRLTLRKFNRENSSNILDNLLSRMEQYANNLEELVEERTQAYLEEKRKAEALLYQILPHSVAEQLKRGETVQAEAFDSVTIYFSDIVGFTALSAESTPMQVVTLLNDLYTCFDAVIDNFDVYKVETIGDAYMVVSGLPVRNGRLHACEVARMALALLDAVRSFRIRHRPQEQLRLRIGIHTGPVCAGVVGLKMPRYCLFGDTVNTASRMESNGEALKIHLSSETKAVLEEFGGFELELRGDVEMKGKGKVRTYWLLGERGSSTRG
# Text: FIG. 7 is a graph showing competitive binding of glycosylated recombinant human proBNP to GC-A receptor relative to hBNP.
# [5] = target: T1, GC-A receptor; experiment: Cyclic GMP release from cells expressing the human GC-A receptor; assay type: cell-based; conditions: vs hBNP
# Protocol: Pursuant to the present invention, the effects of hBNP, unglycosylated proBNP, and O-link glycosylated proBNP on cyclic GMP release from cells expressing the human GC-A receptor were determined.
# [6] = target: T2, NPR-A receptor (Homo sapiens, UniProt P16066); experiment: NPR-A activation in human aorta endothelial cells (FIG. 8); assay type: cell-based
# T2 construct: endogenous in cells; host or cells: human aorta endothelial cells
# T2 sequence (P16066 33-1061): T1 sequence (P16066 33-1061)
# Text: The graph provides a direct activity comparison of hBNP relative to proBNP.
# With respect to proBNP and BNP, total “Natriuretic Activity” in a blood sample is defined by the cumulative activity of proBNP and hBNP. When measuring against this receptor however it should be appreciated that the activity of other relevant natriuretic peptides, such as ANP and proANP can and should also be taken into consideration.
Compound,half-life [1],effects on cGMP levels in plasma compared to BNP ([2]; plasma),effects on cGMP levels in urine compared to BNP ([2]; urine),"PK profile compared to BNP ([3]; conscious restrained cynomolgus monkeys, i.v. bolus)",metabolism in the blood ([3]; cynomolgus monkeys),circulating (plasma) half-life compared to hBNP [3],circulating (plasma) half-life compared to hBNP ([3]; listed as glycosylated proBNP),competitive binding to GC-A receptor relative to hBNP [4],inducing cellular cyclic GMP release (receptor activation) [5],potency in cyclic GMP release assay [5],activity against the NPR-A receptor [6],potency on NPR-A activation compared to hBNP [6]
CC[C@H](C)[C@@H]1NC(=O)[C@H](CCCNC(=N)N)NC(=O)[C@H](CC(=O)O)NC(=O)[C@H](CCSC)NC(=O)[C@H](CCCCN)NC(=O)[C@H](CCCNC(=N)N)NC(=O)CNC(=O)[C@H](Cc2ccccc2)NC(=O)[C@@H](NC(=O)CNC(=O)[C@H](CO)NC(=O)CNC(=O)[C@H](CCC(N)=O)NC(=O)[C@@H](NC(=O)[C@H](CCSC)NC(=O)[C@H](CCCCN)NC(=O)[C@@H]2CCCN2C(=O)[C@@H](N)CO)C(C)C)CSSC[C@@H](C(=O)N[C@@H](CCCCN)C(=O)N[C@H](C(=O)N[C@@H](CC(C)C)C(=O)N[C@@H](CCCN=C(N)N)C(=O)N[C@@H](CCCN=C(N)N)C(=O)N[C@@H](Cc2cnc[nH]2)C(=O)O)C(C)C)NC(=O)CNC(=O)[C@H](CC(C)C)NC(=O)CNC(=O)[C@H](CO)NC(=O)[C@H](CO)NC(=O)[C@H](CO)NC(=O)[C@H](CO)NC1=O [hBNP],approximately 20 minutes,–,–,–,–,–,–,–,–,–,–,–
"proBNP: 108 amino acid human BNP precursor protein, O-link glycosylated, recombinantly expressed in CHO cells",–,reduced effects,reduced effects,extended PK profile,not metabolized in the blood,longer plasma half-life; also recorded: substantial increase in circulating half-life,greater than that of hBNP,less active,equivalent to hBNP,less potent than hBNP,exhibit activity,lower activity than hBNP; also recorded: reduced potency
